Molecular target: the molecule itself
Assay: native gel or EMSA; hrCN-PAGE of digitonin extracts of cRNA-injected X. laevis oocytes (0.1 M sodium phosphate pH 8.0, 1 mM TCEP), non-denaturing conditions; GFP tags visualised by fluorescence scanning; masses judged against hTrpV1-GFP

Protein	stoichiometry N
hNav1.7^GFP (natural protein, numbers count on: isoform 3; pCMV6-neo-hNav1.7, Klugbauer et al. 1995; also called hNav1.7/WT; source: X. laevis oocytes, cRNA injected, in detergent extract (cleared supernatant); not shown: GFP, C-terminal, kept) not shown	2
hTRPV1^GFP (natural protein, human, UniProt Q8NER1-1 1-839, looked up, human TRPV1, transcript variant 3, subcloned from pDONR201 into pNKS2; Used as mass marker on the native gel; calculated mass of the GFP-tagged protomer printed as 123 kDa; also called human TRPV1 (transient receptor potential cation channel subfamily V member 1); source: X. laevis oocytes, cRNA injected, in digitonin extract (cleared supernatant); not shown: GFP, C-terminal, kept) MKKWSSTDLGAAADPLQKDTCPDPLDGDPNSRPPPAKPQLSTAKSRTRLFGKGDSEEAFPVDCPHEEGELDSCPTITVSPVITIQRPGDGPTGARLLSQDSVAASTEKTLRLYDRRSIFEAVAQNNCQDLESLLLFLQKSKKHLTDNEFKDPETGKTCLLKAMLNLHDGQNTTIPLLLEIARQTDSLKELVNASYTDSYYKGQTALHIAIERRNMALVTLLVENGADVQAAAHGDFFKKTKGRPGFYFGELPLSLAACTNQLGIVKFLLQNSWQTADISARDSVGNTVLHALVEVADNTADNTKFVTSMYNEILMLGAKLHPTLKLEELTNKKGMTPLALAAGTGKIGVLAYILQREIQEPECRHLSRKFTEWAYGPVHSSLYDLSCIDTCEKNSVLEVIAYSSSETPNRHDMLLVEPLNRLLQDKWDRFVKRIFYFNFLVYCLYMIIFTMAAYYRPVDGLPPFKMEKTGDYFRVTGEILSVLGGVYFFFRGIQYFLQRRPSMKTLFVDSYSEMLFFLQSLFMLATVVLYFSHLKEYVASMVFSLALGWTNMLYYTRGFQQMGIYAVMIEKMILRDLCRFMFVYIVFLFGFSTAVVTLIEDGKNDSLPSESTSHRWRGPACRPPDSSYNSLYSTCLELFKFTIGMGDLEFTENYDFKAVFIILLLAYVILTYILLLNMLIALMGETVNKIAQESKNIWKLQRAITILDTEKSFLKCMRKAFRSGKLLQVGYTPDGKDDYRWCFRVDEVNWTTWNTNVGIINEDPGNCEGVKRTLSFSLRSSRVSGRHWKNFALVPLLREASARDRQSAQPEEVYLRQFSGSLKPEDAEVFKSPAASGEK	4
